The target in series [1] is murine IL-6 (mouse) (UniProt P08505).
Series [2] deals with the molecule itself. The series is described as follows: SDS-PAGE under non-reducing and reducing conditions; purified mIL-6-RFP-Fc on 7.5% SDS/PAGE, Coomassie staining and Western blotting; disulfide-linked dimer versus monomer. Background: In western blotting, separated proteins are transferred to a membrane and probed.
Series [3] deals with murine IL-6 (mouse) (UniProt P08505). The source holds these as a separate data set.

murine IL-6 (mouse), sequence (P08505 25-211): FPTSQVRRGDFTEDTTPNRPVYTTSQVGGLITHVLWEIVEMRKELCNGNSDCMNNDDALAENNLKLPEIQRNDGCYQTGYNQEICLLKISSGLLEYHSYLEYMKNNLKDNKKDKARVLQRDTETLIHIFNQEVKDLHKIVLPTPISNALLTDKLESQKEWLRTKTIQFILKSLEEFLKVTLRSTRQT

B1: mIL-6-RFP-Fc (murine IL-6 receptor fusion protein with engineered mIgG2a Fc-fragment and 3V5-3HA tag) (Fc fusion)
chain: QLLEPCGYIYPEFPVVQRGSNFTAICVLKEACLQHYYVNASYIVWKTNHAAVPREQVTVINRTTSSVTFTDVVLPSVQLTCNILSFGQIEQNVYGVTMLSGFPPDKPTNLTCIVNEGKNMLCQWDPGRETYLETNYTLKSEWATEKFPDCQSKHGTSCMVSYMPTYYVNIEVWVEAENALGKVSSESINFDPVDKVKPTPPYNLSVTNSEELSSILKLSWVSSGLGGLLDLKSDIQYRTKDASTWIQVPLEDTMSPRTSFTVQDLKPFTEYVFRIRSIKDSGKGYWSDWSEEASGTTYEDLVLGSCRALEVANGTVTSLPGATVTLICPGKEAAGNVTIHWVYSGSQNREWTTTGNTLVLRDVQLSDTGDYLCSLNDHLVGTVPLLVDVPPEEPKLSCFRKNPLVNAICEWRPSSTPSPTTKAVLFAKKINTTNGKSDFQVPCQYSQQLKSFSCQVEILEGDKVYHIVSLCVANSVGSKSSHNEAFHSLKMVQPDPPANLVVSAIPGRPRWLKVSWQHPETWDPSYYLLQFQLRYRPVWSKEFTVLLLPVAQYQCVIHDALRGVKHVVQVRGKEELDLGQWSEWSPEVTGTPWIPRGPTIKPCPPCKCPAPNLEGGPSVFIFPPKIKDVLMISLSPIVTCVVVDVSEDDPDVQISWFVNNVEVHTAQTQTHREDYNSTLRVVSALPIQHQDWMSGKAFACAVNNKDLPAPIERTISKPKGSVRAPQVYVLPPPEEEMTKKQVTLTCMVTDFMPEDIYVEWTNNGKTELNYKNTEPVLDSDGSYFMYSKLRVEKKNWVERNSYSCSVVHEGLHNHHTTKSFSRTPGK
As a reminder, the stoichiometry N is a count of units in the complex or per binding partner. In turn, B1 displayed an IC50 of inhibition of IL-6 (37 pM)-dependent proliferation of Ba/F3-mgp130/mIL-6Rα cells, serial 2-fold dilutions from 3.9 nM, XTT assay after 60 h with murine IL-6 (mouse) [1] of 3.3e-05 μM. Also, the “stoichiometry N” value in series [2] was 2. In addition, in the series with murine IL-6 (mouse) [3], the attenuation of IL-6 (100 ng i.v.)-induced ERK1/2 phosphorylation in mouse kidney after pretreatment with mIL-6-RFP-Fc i.p. for 45 min (4, 12 or 40 μg; value for 40 μg, 70× molar excess) worked out at 50%; the attenuation of IL-6 (100 ng i.v.)-induced ERK1/2 phosphorylation in mouse liver after pretreatment with mIL-6-RFP-Fc i.p. for 45 min (4, 12 or 40 μg; value for 40 μg, 70× molar excess) was 63%; the attenuation of IL-6 (100 ng i.v.)-induced STAT3 phosphorylation in mouse kidney after pretreatment with mIL-6-RFP-Fc i.p. for 45 min (4, 12 or 40 μg; value for 40 μg, 70× molar excess) turned out to be 80%; the attenuation of IL-6 (100 ng i.v.)-induced STAT3 phosphorylation in mouse liver after pretreatment with mIL-6-RFP-Fc i.p. for 45 min (4, 12 or 40 μg; value for 40 μg, 70× molar excess) was 12%.
